The text below walks through data of patent publication US20130217685, “COMPOUNDS FOR MODULATING RNA BINDING PROTEINS AND USES THEREFOR” (UNIVERSITY OF MASSACHUSETTS, published 2013).

This data set concerns the target T1, MEX-5 TZF domain (236-350) (Caenorhabditis elegans, UniProt Q9XUB2 Q9XUB2:236-350).
T1 sequence: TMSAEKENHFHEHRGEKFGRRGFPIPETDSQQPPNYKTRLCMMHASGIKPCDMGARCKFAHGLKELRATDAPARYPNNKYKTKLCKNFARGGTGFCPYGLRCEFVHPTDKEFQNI
Nature of the data set: EMSA; 120 nM protein, 2-3 nM RNA; compound dose response (compound E IC50 2.0 uM). The following applies: tags: N-terminal MBP (pMal-c, NEB); ORFeome clone, Open Biosystems; label: 3'-fluorescein. The procedure:
A further dose response assay was performed on select compounds of the invention as described below. A sub-saturating concentration of MEX-5 or POS-1 (120 nM) was equilibrated with limiting fluorescein labeled RNA (2-3 nM, TCR2 RNA or MEX-3 UTR fragment RNA respectively) in the presence of varying concentrations of compound. Following equilibration, the reactions were loaded onto a 5% slab polyacrylamide gel and subjected to electrophoresis for about 1 hour to separate protein-RNA complex from free RNA. The gel was scanned on a FUJI FLA-5000 imager, and the fraction of bound RNA determined by dividing the intensity of the bound RNA by the intensity of the bound RNA plus the free RNA. The fraction of […] was plotted as a function of compound concentration and fit to a sigmoidal dose response function in order to determine the IC₅₀, the concentration that gives half maximal inhibition.
For orientation: A gel shift assay detects complexes by their altered migration in electrophoresis.

On to UUUCUUUAUAACUUGUUACAAUUUUUGAAA (ssRNA) [TCR2], for which the binding result is given as “binds”.
